# System: Escherichia coli TOP10
# Assay: shrunken log2 fold change of peptide-encoding DNA abundance (4.5 h post-induction vs induction); higher = less antimicrobial activity (less host growth inhibition)
# Settings: time post-induction: 4.5 h; library: site-saturation at positions 5, 18, 19, 20
# 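Note: peptides expressed intracellularly from a pBAD plasmid library in pooled LB shake-flask culture, induced with 0.3% L-arabinose, DNA abundance read by NGS, three biological replicates, DESeq2 with apeglm shrinkage.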
row,Sequence,shrunken log2 fold change
1,RRIRYRPPRLPRPRPRPMNNPRP,-1.28
2,RRIRYRPPRLPRPRPRPMPLPRP,-0.398
3,RRIRYRPPRLPRPRPRPMRVPRP,0.135
4,RRIRYRPPRLPRPRPRPMTVPRP,-0.0212
5,RRIRYRPPRLPRPRPRPMVDPRP,-0.248
6,RRIRYRPPRLPRPRPRPMVKPRP,-0.574
7,RRIRYRPPRLPRPRPRPMVLPRP,-0.0934
8,RRIRYRPPRLPRPRPRPMWFPRP,0.0169
9,RRIRYRPPRLPRPRPRPMYAPRP,-0.0214
10,RRIRYRPPRLPRPRPRPNDQPRP,-0.819
11,RRIRYRPPRLPRPRPRPNDYPRP,-0.0969
12,RRIRYRPPRLPRPRPRPNEEPRP,-0.0952
13,RRIRYRPPRLPRPRPRPNHYPRP,-0.739
14,RRIRYRPPRLPRPRPRPNIKPRP,-1.13
15,RRIRYRPPRLPRPRPRPNIYPRP,-0.68
16,RRIRYRPPRLPRPRPRPNLKPRP,-0.732
17,RRIRYRPPRLPRPRPRPNQCPRP,-0.352
18,RRIRYRPPRLPRPRPRPNQLPRP,-0.439
19,RRIRYRPPRLPRPRPRPNRGPRP,-0.124
20,RRIRYRPPRLPRPRPRPNSHPRP,-0.839
21,RRIRYRPPRLPRPRPRPNSYPRP,-2.3
22,RRIRYRPPRLPRPRPRPNTGPRP,-0.195
23,RRIRYRPPRLPRPRPRPNTSPRP,-0.423
24,RRIRYRPPRLPRPRPRPNVIPRP,-0.338
25,RRIRYRPPRLPRPRPRPNVTPRP,-0.573

row,Sequence,shrunken log2 fold change
1,RRIRYRPPRLPRPRPRPNVWPRP,-0.00356
2,RRIRYRPPRLPRPRPRPNWGPRP,-0.0851
3,RRIRYRPPRLPRPRPRPNYPPRP,-0.79
4,RRIRYRPPRLPRPRPRPPCNPRP,-0.0594
5,RRIRYRPPRLPRPRPRPPDKPRP,0.194
6,RRIRYRPPRLPRPRPRPPDYPRP,-2.1
7,RRIRYRPPRLPRPRPRPPEIPRP,-0.0815
8,RRIRYRPPRLPRPRPRPPESPRP,0.0226
9,RRIRYRPPRLPRPRPRPPEYPRP,0.0412
10,RRIRYRPPRLPRPRPRPPGHPRP,-0.337
11,RRIRYRPPRLPRPRPRPPIHPRP,-0.958
12,RRIRYRPPRLPRPRPRPPILPRP,-0.498
13,RRIRYRPPRLPRPRPRPPLVPRP,0.174
14,RRIRYRPPRLPRPRPRPPNLPRP,-0.248
15,RRIRYRPPRLPRPRPRPPNMPRP,-0.863
16,RRIRYRPPRLPRPRPRPPPDPRP,0.7
17,RRIRYRPPRLPRPRPRPPPVPRP,0.61
18,RRIRYRPPRLPRPRPRPPQKPRP,-0.123
19,RRIRYRPPRLPRPRPRPPTIPRP,-0.424
20,RRIRYRPPRLPRPRPRPPTMPRP,-0.352
21,RRIRYRPPRLPRPRPRPPTQPRP,-0.056
22,RRIRYRPPRLPRPRPRPPVWPRP,0.0256
23,RRIRYRPPRLPRPRPRPPWCPRP,-0.338
24,RRIRYRPPRLPRPRPRPPWSPRP,-0.372
25,RRIRYRPPRLPRPRPRPPYLPRP,-0.985

row,Sequence,shrunken log2 fold change
1,RRIRYRPPRLPRPRPRPQAYPRP,-0.00884
2,RRIRYRPPRLPRPRPRPQCDPRP,-0.529
3,RRIRYRPPRLPRPRPRPQCQPRP,-0.00208
4,RRIRYRPPRLPRPRPRPQDLPRP,0.0284
5,RRIRYRPPRLPRPRPRPQDMPRP,0.000181
6,RRIRYRPPRLPRPRPRPQDYPRP,-0.236
7,RRIRYRPPRLPRPRPRPQEDPRP,-0.135
8,RRIRYRPPRLPRPRPRPQEIPRP,-0.507
9,RRIRYRPPRLPRPRPRPQEYPRP,-0.00804
10,RRIRYRPPRLPRPRPRPQFGPRP,0.03
11,RRIRYRPPRLPRPRPRPQFSPRP,0.0125
12,RRIRYRPPRLPRPRPRPQGCPRP,-0.557
13,RRIRYRPPRLPRPRPRPQIPPRP,-0.17
14,RRIRYRPPRLPRPRPRPQLEPRP,-0.418
15,RRIRYRPPRLPRPRPRPQLGPRP,-0.238
16,RRIRYRPPRLPRPRPRPQLTPRP,-0.0894
17,RRIRYRPPRLPRPRPRPQMKPRP,-1.17
18,RRIRYRPPRLPRPRPRPQNGPRP,-0.152
19,RRIRYRPPRLPRPRPRPQNYPRP,-0.81
20,RRIRYRPPRLPRPRPRPQPGPRP,-0.0846
21,RRIRYRPPRLPRPRPRPQQTPRP,0.019
22,RRIRYRPPRLPRPRPRPQRQPRP,-0.00525
23,RRIRYRPPRLPRPRPRPQTKPRP,-0.168
24,RRIRYRPPRLPRPRPRPQVMPRP,-0.0105
25,RRIRYRPPRLPRPRPRPQVTPRP,-0.00804

row,Sequence,shrunken log2 fold change
1,RRIRYRPPRLPRPRPRPQYDPRP,-0.0291
2,RRIRYRPPRLPRPRPRPRAIPRP,-0.36
3,RRIRYRPPRLPRPRPRPRCIPRP,-0.308
4,RRIRYRPPRLPRPRPRPRCVPRP,-0.276
5,RRIRYRPPRLPRPRPRPRDEPRP,0.047
6,RRIRYRPPRLPRPRPRPRFKPRP,-0.302
7,RRIRYRPPRLPRPRPRPRGVPRP,0.0913
8,RRIRYRPPRLPRPRPRPRIEPRP,0.0242
9,RRIRYRPPRLPRPRPRPRKYPRP,-0.333
10,RRIRYRPPRLPRPRPRPRLGPRP,0.0954
11,RRIRYRPPRLPRPRPRPRLLPRP,-0.0826
12,RRIRYRPPRLPRPRPRPRLVPRP,-0.0287
13,RRIRYRPPRLPRPRPRPRMMPRP,0.0163
14,RRIRYRPPRLPRPRPRPRMNPRP,0.0193
15,RRIRYRPPRLPRPRPRPRNSPRP,0.022
16,RRIRYRPPRLPRPRPRPRNVPRP,-0.324
17,RRIRYRPPRLPRPRPRPRPSPRP,0.0768
18,RRIRYRPPRLPRPRPRPRPWPRP,0.332
19,RRIRYRPPRLPRPRPRPRRQPRP,-0.232
20,RRIRYRPPRLPRPRPRPRSTPRP,-0.156
21,RRIRYRPPRLPRPRPRPRTWPRP,-0.0833
22,RRIRYRPPRLPRPRPRPRVHPRP,-0.0416
23,RRIRYRPPRLPRPRPRPRVMPRP,-0.155
24,RRIRYRPPRLPRPRPRPRVSPRP,-0.216
25,RRIRYRPPRLPRPRPRPRYCPRP,-0.495

row,Sequence,shrunken log2 fold change
1,RRIRYRPPRLPRPRPRPRYHPRP,-0.922
2,RRIRYRPPRLPRPRPRPRYPPRP,-0.83
3,RRIRYRPPRLPRPRPRPRYRPRP,-0.0551
4,RRIRYRPPRLPRPRPRPRYVPRP,-0.0777
5,RRIRYRPPRLPRPRPRPSCEPRP,-0.586
6,RRIRYRPPRLPRPRPRPSCKPRP,-0.908
7,RRIRYRPPRLPRPRPRPSCQPRP,-0.296
8,RRIRYRPPRLPRPRPRPSCRPRP,-0.6
9,RRIRYRPPRLPRPRPRPSCVPRP,-0.497
10,RRIRYRPPRLPRPRPRPSDFPRP,-1.03
11,RRIRYRPPRLPRPRPRPSDMPRP,-0.00973
12,RRIRYRPPRLPRPRPRPSDYPRP,-1.34
13,RRIRYRPPRLPRPRPRPSEPPRP,-0.205
14,RRIRYRPPRLPRPRPRPSGPPRP,-0.395
15,RRIRYRPPRLPRPRPRPSHRPRP,-0.479
16,RRIRYRPPRLPRPRPRPSIQPRP,-0.594
17,RRIRYRPPRLPRPRPRPSIRPRP,-0.116
18,RRIRYRPPRLPRPRPRPSKIPRP,-0.502
19,RRIRYRPPRLPRPRPRPSKWPRP,-0.155
20,RRIRYRPPRLPRPRPRPSMAPRP,-0.572
21,RRIRYRPPRLPRPRPRPSMEPRP,-0.408
22,RRIRYRPPRLPRPRPRPSMKPRP,-0.806
23,RRIRYRPPRLPRPRPRPSMLPRP,-1.07
24,RRIRYRPPRLPRPRPRPSMSPRP,-1.19
25,RRIRYRPPRLPRPRPRPSNAPRP,-1

row,Sequence,shrunken log2 fold change
1,RRIRYRPPRLPRPRPRPSNYPRP,-1.28
2,RRIRYRPPRLPRPRPRPSPIPRP,-1.06
3,RRIRYRPPRLPRPRPRPSQQPRP,0.102
4,RRIRYRPPRLPRPRPRPSQYPRP,-0.209
5,RRIRYRPPRLPRPRPRPSYQPRP,-1.27
6,RRIRYRPPRLPRPRPRPTAQPRP,0.0778
7,RRIRYRPPRLPRPRPRPTCAPRP,-0.0853
8,RRIRYRPPRLPRPRPRPTDSPRP,-0.678
9,RRIRYRPPRLPRPRPRPTELPRP,0.0588
10,RRIRYRPPRLPRPRPRPTFFPRP,-0.0709
11,RRIRYRPPRLPRPRPRPTFRPRP,-0.0396
12,RRIRYRPPRLPRPRPRPTGDPRP,0.00498
13,RRIRYRPPRLPRPRPRPTHYPRP,-0.867
14,RRIRYRPPRLPRPRPRPTIMPRP,-1.29
15,RRIRYRPPRLPRPRPRPTKFPRP,-0.316
16,RRIRYRPPRLPRPRPRPTKKPRP,0.113
17,RRIRYRPPRLPRPRPRPTLHPRP,-0.749
18,RRIRYRPPRLPRPRPRPTLQPRP,0.201
19,RRIRYRPPRLPRPRPRPTPDPRP,-0.145
20,RRIRYRPPRLPRPRPRPTPIPRP,-0.158
21,RRIRYRPPRLPRPRPRPTPSPRP,0.421
22,RRIRYRPPRLPRPRPRPTPYPRP,-0.847
23,RRIRYRPPRLPRPRPRPTQCPRP,-0.0863
24,RRIRYRPPRLPRPRPRPTQRPRP,-0.164
25,RRIRYRPPRLPRPRPRPTRVPRP,0.303
